Experimental findings from EP2857035B1 (Survac ApS, dated 2017) are described below.

One assay concerns the target T1, HLA-A1 (human).
T1 construct: MHC class I molecule; also called HLA-A*0101
Put plainly: assembly assay, TAP-deficient cell lysate.

A further assay addresses HLA-B35 (human). Briefly: assembly assay, T2-B35 cell lysate, W6/32 IP, IEF gel.
Assay [1] addresses T2, HLA-A2 (human).
T2 construct: MHC class I molecule without added peptide, from cell lysate; stably folded molecules immunoprecipitated with a conformation-dependent antibody; also called HLA-A*0201; HLA A*0201
Briefly: assembly assay, T2 cell lysate.

The target of the next assay is T3, HLA-A3 (human).
T3 construct: MHC class I molecule from cell lysate; immunoprecipitated with mAb W6/32; also called HLA-A*0301
Briefly: assembly assay, TAP-deficient cell lysate.

A further assay deals with T4, HLA-A11 (human).
T4 construct: MHC class I molecule from cell lysate; immunoprecipitated with mAb W6/32; also called HLA-A*1101
Briefly: assembly assay, TAP-deficient cell lysate.

For assay [2], the target named is T2, HLA-A2. Briefly: assembly assay, TAP-deficient cell lysate.

With FEELTLGEY [sur93Y9], the binding result in the assay with HLA-A1 is recorded as “no binding (tested: peptide tested at 40, 4, 0.4, 0.04 µM)”.

CPTENEPDY [Sur46Y9] displayed a C50 with HLA-B35 of 4 µM. For the molecule MAEAGFIHC [Sur38-46], in the assay with HLA-A1, the binding result is given as “no binding (tested: peptide tested at 40, 4, 0.4, 0.04 µM)”.

Consider TAKKVRRAI (also called Survivin127-135) [Sur7], for which the binding result in the assay with HLA-A2 [1] is reported as “no binding”.

For the molecule QFEELTLGEY [sur92Y9], the binding result with HLA-A1 is on record as “no binding (tested: peptide tested at 40, 4, 0.4, 0.04 µM)”.

Take IAKETNNKKK [Sur 113-122]: the binding result with HLA-A3 is on record as “no binding”; with HLA-A11, “no binding (tested: peptide tested at 40, 4, 0.4, 0.04 µM)”. For SVKKQFEELTL [Sur88-98], in the assay with HLA-A2 [2], the binding result is “no binding”. Turning to CAFLSVKKQF [Sur 84-93], the binding result was “no binding” with HLA-A3 and “no binding (tested: peptide tested at 40, 4, 0.4, 0.04 µM)” in the assay with HLA-A11.

In turn, CPTENEPDL (also called Survivin46-54) [Sur46-54] showed a C50 with HLA-B35 of 20 µM. Consider DLAQCFFCF [Sur 53-61], for which the binding result was “no binding” with HLA-A3 and “no binding (tested: peptide tested at 40, 4, 0.4, 0.04 µM)” in the assay with HLA-A11. For the molecule DLAQCFFCK [Sur53K9], in the assay with HLA-A3, the binding result was “no binding”. For the molecule TPERMAEAGF (also called Survivin34-43) [Sur34-43], the binding result with HLA-A1 is reported as “no binding (tested: peptide tested at 40, 4, 0.4, 0.04 µM)”. The same molecule yielded a C50 with HLA-B35 greater than 100 µM. As to TPERMAEAGY [sur34Y9], the binding result with HLA-A1 is given as “no binding (tested: peptide tested at 40, 4, 0.4, 0.04 µM)”. As to LKDHRISTF [Sur14-22], in the assay with HLA-A1, the binding result is on record as “no binding (tested: peptide tested at 40, 4, 0.4, 0.04 µM)”.

As for LKDHRISTY [sur14Y9], the binding result with HLA-A1 is reported as “no binding (tested: peptide tested at 40, 4, 0.4, 0.04 µM)”. As to PTENEPDLAQ [Sur47-56], in the assay with HLA-A1, the binding result is listed as “no binding (tested: peptide tested at 40, 4, 0.4, 0.04 µM)”. For PTIRRKNLRK (the text says nothing of its origin) [SurEx3-A3-2], in the assay with HLA-A3, the binding result was “no binding”. With ETAKKVRRAI (also called Survivin126-135) [Sur10], the binding result in the assay with HLA-A2 [1] is recorded as “no binding”.

As to ENEPDLAQCF [Sur49-58], the binding result in the assay with HLA-A1 is on record as “no binding (tested: peptide tested at 40, 4, 0.4, 0.04 µM)”.

In the case of ENEPDLAQCY [sur49Y9], in the assay with HLA-A1, the binding result is listed as “no binding (tested: peptide tested at 40, 4, 0.4, 0.04 µM)”. For FLKDHRISTK [Sur13K9], the binding result with HLA-A3 is “no binding”. For the molecule PTLPPAWQPFL [Sur4-14], in the assay with HLA-A2 [2], the binding result is listed as “no binding”.

Consider LAQCFFCFKEL [Sur54-64], for which the binding result in the assay with HLA-A2 [2] is reported as “no binding”. FLKLDRERAK [Sur 101-110]: the binding result with HLA-A3 is listed as “no binding”; with HLA-A11, “no binding (tested: peptide tested at 40, 4, 0.4, 0.04 µM)”.

As for RAIEQLAAM (also called Survivin133-141) [Sur2], the binding result with HLA-A2 [1] is listed as “no binding”. In the assay with HLA-B35, EPDLAQCFY [Sur51Y9] gave a C50 of 1.5 µM. On to EPDLAQCFF (also called Survivin51-59) [Sur51-59], for which, in the assay with HLA-A1, the binding result is reported as “no binding (tested: peptide tested at 40, 4, 0.4, 0.04 µM)”. In the assay with HLA-B35, the C50 amounted to 13 µM. For the molecule KLDRERAKNK [Sur 103-112], the binding result with HLA-A3 is listed as “no binding”; with HLA-A11, “no binding (tested: peptide tested at 40, 4, 0.4, 0.04 µM)”. For the molecule SVKKQFEEL (also called Survivin88-96) [Sur5], in the assay with HLA-A2 [1], the binding result is “no binding”. For the molecule ELTLGEFLK [Sur 95-103], the binding result with HLA-A11 was “no binding (tested: peptide tested at 40, 4, 0.4, 0.04 µM)”.

As to KLDRERAKNKI [Sur103-113], in the assay with HLA-A2 [2], the binding result is recorded as “no binding”. For RISTFKNWPF [Sur 18-27], the binding result is given as “no binding” with HLA-A3 and “no binding (tested: peptide tested at 40, 4, 0.4, 0.04 µM)” with HLA-A11.

As to RITREEHKK (the text says nothing of its origin) [Sur2b-A3-1], the binding result with HLA-A3 is “no binding”. In the case of LPPAWQPFL (also called Survivin6-14) [Sur6-14], the C50 with HLA-B35 was greater than 100 µM.
